Reference: patent US20250147035A1, “METHODS FOR DETECTION OF POST-TRANSLATIONAL MODIFICATIONS” (Quantum-Si Incorporated, priority 2023, published 2025)
Primed or numbered codes have the meaning given here. Where no end group is shown, it is not given here. [ ]: non-standard residue; d: D form. pS = N[C@@H](COP(=O)(O)O)C(=O)O; Biotin′ = not defined here

Key:
[1] = system: pT-ENR and pT-TDY peptides; experiment: Two-stage chip run, phospho-threonine peptides spiked in the CDNF libraries; assay type: binding
Method: (§1) Using the two-stage recognition run format described above, PTM recognition of phospho-threonine in various peptide motifs was evaluated. Phospho-threonine detection by the PTM-specific affinity reagent in different peptide motifs was evaluated with unphosphorylated threonine ([…], […], […], […], and […]) and compared to their phosphorylated threonine counterparts (QRF-pT-LAYPDDD, RFL-pT-LAYPDDD, FLA-pT-LAYPDDD, LAQ-PT-LAYPDDD, and AQR-pT-LAYPDDD). […] The PTM-specific affinity reagent was also evaluated for its ability to detect phospho-threonine residues at different positions in peptides. […] Similar results were obtained by performing the same two-stage chip run on phospho-threonine peptides spiked in the CDNF libraries (FIGS. 19A-19H).

[…] = Octet binding platform, peptide-coated sensors dipped in PM12, control peptide; conditions: unphosphorylated threonine
Source text: (§2) Next, control peptides ([…] and […]) were compared to model peptides (EFLN-pT-RFYK and p[…]) to evaluate phospho-threonine detection in different peptide motifs using a post-translational modification-specific (PTM-specific) affinity reagent that binds to phospho-threonine (PM12). Using the Octet binding platform, Octet sensors were coated with the peptide of interest and dipped in buffer containing the PTM-specific affinity reagent. […] In contrast, no shift was detected with the corresponding control peptides having unphosphorylated threonine (FIGS. 14A-14B).

EFLNTRFY = experiment: as above; conditions: unphosphorylated threonine
Source text: as §2

[2] = system: phospho-threonine peptides (p[…], QRFpTLAYPDDD, p[…]); assay type: binding
pSAKLDEESILKQ-Biotin = target: T1, pSAKLDEESILKQ-Biotin; experiment: Octet (BLI), fixed reagent concentration;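 further: octet binding of candidate PTM-specific affinity reagents, each at one fixed concentration, to biotinylated phospho-Thr or phospho-Ser peptides, with unmodified biotinylated peptides serving as controls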
T1 peptide: [pS]AKLDEESILKQ-{Biotin′}
Method: Octet binding assays at a fixed concentration of PTM-specific affinity reagent candidates were evaluated for binding with phospho-threonine, phospho-serine containing peptides (p[sequence]-Biotin; p[sequence]-Biotin; p[sequence]-Biotin), and control peptides without modifications ([sequence]-Biotin; [sequence]-Biotin).

p[…]-Biotin [3] = experiment: Octet binding assay of PTM-specific affinity reagent candidates, pTA peptide; conditions: fixed concentration of reagent
Source text: (§3) This Example characterizes an exemplary phosphorylated threonine recognizer for use in methods of the disclosure.

EFLN-pT-RFYK = experiment: Octet binding platform, peptide-coated sensors dipped in PM12; conditions: phospho-threonine in the middle of the peptide
Source text: as §2

pT-[…] = experiment: as above; conditions: phospho-threonine at the N-terminus
Source text: as §2

…-Biotin = target: T2, …-Biotin; experiment: Octet (BLI), fixed reagent concentration
T2 sequence (peptide, C-terminal Biotin): TAKLDEESILKQ

p…-Biotin = target: T3, p…-Biotin; experiment: Octet (BLI), fixed reagent concentration
T3 sequence (peptide, phosphothreonine at 1; C-terminal Biotin): TAKLDEESILKQ

p[…]-Biotin [4] = experiment: Octet binding assay of PTM-specific affinity reagent candidates, pTQR peptide; conditions: fixed concentration of reagent
Method: (§4) This Example characterizes an exemplary phosphorylated threonine recognizer for use in methods of the disclosure. Octet binding assays at a fixed concentration of PTM-specific affinity reagent candidates were evaluated for binding with phospho-threonine, phospho-serine containing peptides (p[…]-Biotin; p[…]-Biotin; p[…]-Biotin), and control peptides without modifications ([…]-Biotin; […]-Biotin).

[5] = system: phospho-threonine peptides; experiment: Two-stage on-chip recognition run, phospho-threonine peptides; assay type: binding
Method: (§5) The phospho-threonine-specific affinity reagent, PM12, was evaluated for its ability to bind phospho-threonine residues residing in a range of motifs and at different positions in peptides (FIG. 15). To evaluate the PTM-specific affinity reagent, two-stage on-chip recognition runs were performed as described in Example 3. […] Peptide sequencing following PTM detection was not affected for either peptide (FIGS. 16A-16C).
(§6) This was followed by a second stage in which reagents for peptide sequencing (amino acid recognition molecules, cleaving reagents) were added to the chip to determine sequence information for the single peptide molecules. The plots shown at the top of FIGS. 16B and 16C are stacked plots showing the number of apertures (y-axis) with recognition taking place on the chip over the course of two-stage recognition runs (x-axis) performed in parallel with peptides having unphosphorylated threonine (FIG. 16B) or phosphorylated threonine (FIG. 16C). Each plot shown at the bottom of FIGS. 16B and 16C is an example binding trace from a single aperture on the chip.
as §1

[6] = system: phospho-serine (p[…], p[…]); experiment: Polarization and Octet binding assays of PM12; conditions: PM12 fixed concentration
Method: (§7) FIGS. 21A-21E provide data from polarization binding assays using a fixed concentration of PM12 with 2 μM and FITC-labeled peptides (p[…], p[…], p[…], QRFp[…], p[…]).
as §4

[…]-Biotin = Octet binding assay of PTM-specific affinity reagent candidates, TA control peptide; conditions: fixed concentration of reagent
Source text: as §3

phospho-tyrosine (p[…]) = experiment: Polarization binding assays of PM12; conditions: FITC-labeled peptide, PM12 2 μM
Method: as §7, §4

[7] = system: unphosphorylated threonine peptides; experiment: Two-stage on-chip recognition run, unphosphorylated threonine peptides; assay type: binding
Method: as §5, §6, §1

SAKLDEESILKQ-Biotin = experiment: Octet binding assay of PTM-specific affinity reagent candidates, SA control peptide; conditions: SA = […]-Biotin (control); fixed concentration of reagent
Source text: as §3

B1: PM12 (Mycobacterium tuberculosis/FhaA) (other)
chain: MGSAGTSVTLQLDDGSGRTYQLREGSNIIGRGQDAQFRLPDTGVSRRHLEIRWDGQVALLADLNSTNGTTVNNAPVQEWQLADGDVIRLGHSEIIVRMH
B1 was tested. Which “discrimination of phosphorylated and unphosphorylated CDNF peptides” value ([1]; in the same run) did it give?
The value was “able to discriminate between phosphorylated and unphosphorylated CDNF peptides”.

What about the “binding to phospho-threonine CDNF peptides” value ([1]; peptide traces) of the same molecule?
Its value is “binding to pT-ENR and pT-TDY peptides”.

And the Octet shift ([…])?
Its Octet shift is “no shift”.

And the Octet shift (EFLNTRFY)?
The Octet shift was “no shift”.

And the specificity for phospho-threonine ([2]; FITC-labeled peptides, PM12 2 μM)?
The specificity for phospho-threonine was “high specificity for phospho-threonine”.

What about the “preference for phospho-threonine location in the peptide” value ([2]; internal vs N-terminal phospho-threonines, […]) of the same molecule?
The value was “slight preference for internal phospho-threonines”.

And the “Octet binding assay response” value (pSAKLDEESILKQ-Biotin)?
Its value is 0.7.

What about the “Octet binding assay response, pTA” value (p[…]-Biotin [3]) of the same molecule?
Its value is 6.9.

What about the Octet shift (EFLN-pT-RFYK) of the same molecule?
Its Octet shift is 6.8.

What about the Octet shift (pT-[…]) of the same molecule?
The Octet shift was 4.4.

And the Octet binding assay response (…-Biotin)?
The Octet binding assay response was 0.6.

What about the Octet binding assay response (p…-Biotin) of the same molecule?
The Octet binding assay response was 6.9.

What about the “Octet binding assay response, pTQR” value (p[…]-Biotin [4]) of the same molecule?
Its value is 7.1.

And the “phospho-threonine detection in different peptide motifs” value ([5]; QRF-pT-, RFL-pT-, FLA-pT-, LAQ-pT-, AQR-pT-LAYPDDD, first 30 minutes)?
Its value is “able to detect phospho-threonine in all five peptide motifs tested”.

What about the “pulsing in the first 30 minutes” value ([5]; model peptide RFL-pT-LAYPDDD) of the same molecule?
Its value is “fast pulsing”.

And the “recognition of phospho-threonine at different positions in peptides” value ([5]; pulsing in the first 30 minutes)?
The value was “recognized phospho-threonine residues at the N-terminus, the C-terminus, and in the middle of peptides”.

And the binding for phospho-serine [6]?
The binding for phospho-serine was “low binding”.

And the “Octet binding assay response, TA” value ([…]-Biotin)?
The value was 0.6.

What about the binding for phospho-tyrosine (phospho-tyrosine (p[…])) of the same molecule?
The binding for phospho-tyrosine was “low binding”.

What about the “signal for unphosphorylated threonine residues at corresponding positions” value ([7]; N-terminus, C-terminus, middle) of the same molecule?
Its value is “no signal was observed”.

What about the “signal with unphosphorylated peptide motifs” value ([7]; QRFT-, RFLT-, FLAT-, LAQT-, AQRT-LAYPDDD) of the same molecule?
The value was “no signal was detected”.

And the “pulsing in the first 30 minutes” value ([7]; control peptide […])?
The value was “no pulsing”.

And the “Octet binding assay response, SA” value (SAKLDEESILKQ-Biotin)?
Its value is 0.6.
